Values of other authors in article PMC6162179.

Tests used:
[1] = target: Thioredoxin (Escherichia coli) [thioredoxin: P0AA25]
[2] = target: gp5 DNA polymerase (Escherichia phage T7) (UniProt P00581)
Chain of gp5 DNA polymerase (Escherichia phage T7) (P00581 whole entry): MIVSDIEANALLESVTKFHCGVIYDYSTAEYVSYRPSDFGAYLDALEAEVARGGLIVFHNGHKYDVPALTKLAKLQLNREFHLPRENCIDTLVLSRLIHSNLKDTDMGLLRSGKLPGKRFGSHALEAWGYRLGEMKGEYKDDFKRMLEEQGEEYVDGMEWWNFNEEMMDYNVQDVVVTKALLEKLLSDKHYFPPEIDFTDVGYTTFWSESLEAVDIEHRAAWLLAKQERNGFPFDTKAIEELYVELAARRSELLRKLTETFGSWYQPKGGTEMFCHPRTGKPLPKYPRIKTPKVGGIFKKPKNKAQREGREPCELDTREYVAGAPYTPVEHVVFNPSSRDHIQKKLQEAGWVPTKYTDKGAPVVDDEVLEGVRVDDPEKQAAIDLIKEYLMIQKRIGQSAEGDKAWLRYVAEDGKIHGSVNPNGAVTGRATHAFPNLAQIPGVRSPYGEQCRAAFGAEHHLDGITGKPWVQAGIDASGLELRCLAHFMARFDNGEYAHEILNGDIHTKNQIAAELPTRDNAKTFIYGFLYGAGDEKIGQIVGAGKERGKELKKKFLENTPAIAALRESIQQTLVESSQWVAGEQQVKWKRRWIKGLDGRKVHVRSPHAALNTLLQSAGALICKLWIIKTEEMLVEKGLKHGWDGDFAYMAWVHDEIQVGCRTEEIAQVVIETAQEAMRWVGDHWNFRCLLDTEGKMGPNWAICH

Chain of gp2.5 (P03696 whole entry): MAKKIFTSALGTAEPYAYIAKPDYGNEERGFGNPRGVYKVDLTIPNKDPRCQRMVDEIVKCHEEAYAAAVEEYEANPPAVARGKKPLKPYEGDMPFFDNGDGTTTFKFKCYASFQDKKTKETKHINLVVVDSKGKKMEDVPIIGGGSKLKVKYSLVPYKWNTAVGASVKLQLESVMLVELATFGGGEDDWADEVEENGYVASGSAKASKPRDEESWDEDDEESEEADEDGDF
Chain of Thioredoxin (Escherichia coli) [thioredoxin: P0AA25] (P0AA25 2-109): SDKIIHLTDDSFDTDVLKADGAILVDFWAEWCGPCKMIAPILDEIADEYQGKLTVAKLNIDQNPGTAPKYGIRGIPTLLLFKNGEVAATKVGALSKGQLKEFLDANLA

Q: Which results are given for gp2.5 (from UniProt P03696)?
A: Kd [1]: 500 µM; Kd [2]: 1 µM
